Laboratory results published in publication doi:10.1101/2021.12.06.471393.

Biological target: CRISPR-Lon protease (Sulfurihydrogenibium sp. YO3AOP1)
Test: SEC-MALS

Row | stoichiometry N (CRISPR-T variant per CRISPR-Lon) | stoichiometry N (CRISPR-T per CRISPR-Lon) | Substance
1 | 1 | – | CRISPR-T A194E (natural protein)
2 | – | 1 | CRISPR-T protein (natural protein)
3 | 1 | – | CRISPR-T A171E (natural protein)
4 | 1 | – | CRISPR-T A181E (natural protein)
